Laboratory results from the DeepSol protein solubility set.

Experiment: soluble on expression in E. coli; label from the status in PepcDB or PDB records

Sequence | soluble on expression in E. coli
MTLVASSENTGLCPMTFDDSSGQTSHMLFQRLQYQRKTGRFCDVEIVVQNKSFAAHRNILAAHSPYFDAIFKYCKITKEQLTINSKSPQVFELFLNYMYSGTVIIDRSSVSELLRFANNFLIVKLKVYCAAYLDRYLDAANCLSIRTLAQRYNLPGLVKSATDYFDSNLNRCLLESRDIIGYTYTQLTRLIGDPKYVDCITSDTYLKLIVRWVGEEVSKREEIFRLLLESCEFREVSADTLEFLLDYSPLLSKSQKSRFLLLHVMETNNMLMEKYSTQLSSLRQKIVDLPILHDPSQFEDDIYDSSDSEEDPDDYIADGHPTSAQVVEYGNDVNNRLKMKIAFQPGNEKKRLKRPKGMKKHHLHPIPPINATENESIPWIDEDEIDGVYATCSLEGCHTYGPVDNLDPDDCEDEEDQPDENGPSTCIFCGLRTANEELLEKHKARHHNRNTYYMCHLCEFETNWSKQFYLHCAEHWTEIPYRCETCPFTSNEIQEFLTHRLQHTDERFFKCGECAWKGRTRSQLFAHERMHSVLDDRSLHCEECGRGFQQHSTLDHHVASHNDPRPYICEDCGFATKTADHLSLHRRQHTGDNFSCHIAGCDYSSTKKSQLAAHLRTHMAVRAHLCKICGRGFIEKSHLVRHERIHLEEKPFKCDQCEYASSRRDKLKEHIIKHHNSEVLTFQKTQRRKYKRQRMLAAASNIVNNPDALFRPITSDDAVSNWQATNDFSTYSPNPNDYGGPSTYGNPSSPQRAFSVVHPSQHQHHAQSPGCMSMMNVPLRDNHHQMQRQDSPGDSVGGGQGGGGGGGPEGSDNTHGVLMTPNLVMRSPHNRSAVQPQFNNLSTNSDPQQQQQQQQLRPFSLPTYGQMDLAQAAQLQQLQQQLQAAGLPPTGTPNNQDNSNNAWNPWNVQ | not soluble
MTITNSKAEAWELIGNQFWTIGRVAARPSDRENDIFLENIVPGSTVAVIGASTRFLIEKALERGASVTVFDFSQRMCDDLAEALADRCVTIDLLDITAEIPKELAGHFDFVLNDRLINRFTTEEARRACLGMLSLVGSGTVRASVKLGFYDIDLKLIEYGEQSGTLAKFFDPSDKTFHFREAGDVLDRALVPHGLIDKPTLLEWYRRRGKETRFDDEDVRAL | not soluble
GPGSMPSPFQQTLLARAYHYVHPKTGRPIRQFRRYGDPRYINNEAALIRGQWGLITADFGMVTQSQMENARLAILRRLPRGSFTLTMHTDYEEFPVVKKSPESRMGAGKANIHHFAFKFTTGVPLFEIMPISARRLNQAEAEGIFLAGRPFIPLQTVVVPQGRVDEYHVFK | not soluble
MGSDKIHHHHHHMETARHRNTWHIHPDPEALARRLAAAVARMAREAITARGAFHLVVAGGTTPRAAYALLPQLGSDWQCWHLYHGDERCLPPQDPDRNSLMLDTVWLSRVPIPTRQIHHIPAERGADVAARDYAAVLPPHAFDLVLLGVGEDGHTASLFPGHDWGMAKNGPATIAVHDAAKAPPQRVSLSGWRLQYTREMFFMAAGGGKRSALTAWRQGEPIPAATVGTTADIWLDNTAWPEVVPGTI | not soluble
MGSDKIHHHHHHMLKKVSRLDYFTLQVFIGLVELKSGSAVAERLRTTQSKVSRCLTCLREVLEDELFIRQQYGFEPNQVAVTIYPMVKTILEQYDKIVAATIDKGAEPYQLSVATYEQWSLMAMNCVHNTCHCIEGGVSINIQPWTDKIHQRLCQGKVDCSISTEPINHPMVNNFKLGDITHFFIVARRGHPILSSDAPLTQMFNYHIALVNTHLQEQEPHPIEVYAKARHIEIRVALKSPSLRMVVDHVSHSEDIALLSSAMSMAYFENRDDVDYLDISKIWLQTTELETQSYYLHCHKGIKPELTHCLRRVLTEKLHEMQAHCDQVAQENTRDLPTL | not soluble
GPGSMLRATILARGTLVKIGRGPNNVTESASNALLESLQDHGYCYIQHPFIQKTILDQLHRDCRIFFEQYVLHLHDAAAQGSLKRNNLHNYNCTQLSPYELESIKSPSGFRGYYRYVGASGIDDAIECFSVGRDDVADPAVLRRDYYKQAGWEESEYLSMISRRNPWDILLNHVNSIPASGSGIVPGMDRNDNFMSDFKDMMMAYYDLCYTVSMDVMRHISCGLGIRPSIPQGGSDPTMDFELEYFTSFHQKRDCDLQAKYYPQLGAGARLKNGVDIQNQRSAHNPDGVKVLRRKGAKTQPLVRTASTEDGDGEKDVTVRLDTHKDLSTITLLSQDSLGGLEVWDEEKASYMAVPVLEDALLVNAGLFLEKWTGGLIEATPHRVRNAKGGSSRCSIVFFALPDHDARIEPLLQQEDNPAVDAQDSFLAGDMMPAP | not soluble
SLSMKLLIADDEDTIRNGIAKYIKLHTDRFSQIYLAENGQQALDIILQYQPDMMLLDVQMPLKTGLEVLQEAQKLSLVPKTIILSGYDDFEYARKALRYGAKDYLLKPCRSSEILEAINKLVQEQLGTKEG | not soluble
MSSDRSGAAAKASAGQCSSDRPLAVAADPKQYSMALCPDTPSYSLCGRLKSEWDKQSAAASPGPAAYDVPGYFDTLDPQQQQRHLWSGPVPGVHLGIRTVLPESREKAGVPGPGAYQLVRFGDELPRAREPLITRSSRRGRGAAADTPGPGAYDDPTSIAYRADQVRRKRLFTQCSTFGGRWCRREFHTAGPGPAAYNTLVATKLLEKNQRHAPRLVRRQPPLDRQSVAEAAAARMKVSGPPNPQAFPTLPSDFDFDFRKGKTIGGKPHEPLARTAPSHLTQAADDKPSGSRAFWESPPPPGGRFAATPFDPQSHSLAAEKAGTNAARLAEAGNCKPGPGSYNVEVDPTARRVPASLFGRTLSAKSVSVENGVPGPGHYRVVDDTSGRGTIFYKGDFHPRGCSGQGGSAAESLGVGPGAHYNDDTMYSNSINGDRAHNKGFTMGIRYPARATYQHCAPYDETTNINCVYDDELNWVVRPNQHLPLIRRGKL | not soluble
MMLNAWHLPVPPFVKQSKDQLLITLWLTGEDPPQRIMLRTEHDNEEMSVPMHKQRSQPQPGVTAWRAAIDLSSGQPRRRYSFKLLWHDRQRWFTPQGFSRMPPARLEQFAVDVPDIGPQWAADQIFYQIFPDRFARSLPREAEQDHVYYHHAAGQEIILRDWDEPVTAQAGGSTFYGGDLDGISEKLPYLKKLGVTALYLNPVFKAPSVHKYDTEDYRHVDPQFGGDGALLRLRHNTQQLGMRLVLDGVFNHSGDSHAWFDRHNRGTGGACHNPESPWRDWYSFSDDGTALDWLGYASLPKLDYQSESLVNEIYRGEDSIVRHWLKAPWNMDGWRLDVVHMLGEAGGARNNMQHVAGITEAAKETQPEAYIVGEHFGDARQWLQADVEDAAMNYRGFTFPLWGFLANTDISYDPQQIDAQTCMAWMDNYRAGLSHQQQLRMFNQLDSHDTARFKTLLGRDIARLPLAVVWLFTWPGVPCIYYGDEVGLDGKNDPFCRKPFPWQVEKQDTALFALYQRMIALRKKSQALRHGGCQVLYAEDNVVVFVRVLNQQRVLVAINRGEACEVVLPASPFLNAVQWQCKEGHGQLTDGILALPAISATVWMN | soluble
MSNIFLSLEPKILWSHFYRLTQIPRPSGHEEAVRTYVADVAKRCGLEWLVDEAGNIIVRKPASAGMERRRGVILQAHLDMVPQKNAGTAHDFTKDPIDAVIDGEWVHARGTTLGADNGIGVAAALAVLESDDLRHGPLEALFTVNEEAGMTGALGLKPGVLRGDILLNLDSEDEGELFIGCAGGLDGTMRFDYSCEPLPPGYSGIEIRVSGLRGGHSGMDIDLGRGNANKIMNRLLQMGREHHGLLLASIDGGSLRNAIPRESVALVAVPSAQKVAFLDELHSLASAIGLELNGVDPELRVEAADAALPVGMIDDTVAQRLFDAVAACPNGVHRMSEAMAGLVETSNNLARVHSDGRAVSVECLLRSASVEGMRELADAVAGIAERAGTVAAFENGYPGWKPNPASPILKCMVKVYRDRFGKTPEIRAVHAGLECGIIGANNPQLDMISFGPTIRHPHSPDEKVECSSVLKFWELLVATLEEVPEPLEHHHHHH | not soluble
SLSERTFNWKNKDIRAQVDVVDSKLLPTLLLRNALVLNPYVKQWLKKNIWIYQDRIVYVGHELPNRAEEIHTIDCEGKYIVPGYIEPHAHPFQIYNPQTLAEYVSQYGTTTFVNDNLFLLLQSGKKKALTILNELKKQPVQYFWWSRYDLQTEVLNEDHVLPFDVRKQWIEHPDVIQGGEMTGWPRLVDGDDLMLHCMQATKKQRKRIEGHFPGASDKTLTKMKLFGADCDHEAMTGDEVMRRLELGYYVSLRNSSIRPDVRKILQELHEKGFRYYDHFFYTTDGATPNFYKGGMTNELIRIALEEGVPAIDAYNMASFNIAKYYQMDDYLGVVGPGRLASLNILEDPLNPNPVTVLSKGTILRENGCDLKAFTKTDWHKGGLVPLELSYDMTMDDLQFSMPMGVKMRNAVIMEPYMIEIDNSMEQLSFDHDESYLTMLDRHGKWRVNTMIKGFASSVQGFVSSFTTTGDIVAIGKNKADMLLAFARMKEIGGGIVLAENGNILHEIPLALCGCASSEAYEDVLEKEQKLRDLLTERGYEFCDPIYTLLFLQSTHLPYIRITPRGIFDVMKKTVLFPSIMR | soluble
MGSDKIHHHHHHMNVPFPKRDHGGGLDAAAAEYGGDLEAWLDLSTGINPNAYPVGQLPQDIWGRLPDEGAMARLLDAARSFWSVPDGVEVIAAAGASPLIARMPDMTAFSGAYIPVPTYNEYAAAFAARGRLNDPLNPQNPVHVYVHPNNPDGRMWPGSVIGGRPLTIIDESFCDTVPDKTHMARAAEPGVIILKSFGKFWGLAGLRLGFAIAAPETFARSSSSASLQELMGPWSVSGPALEIGARALQDHAWAEATRVRLGHDAARLDDMLLSAGAEIVGGTTLFRTYAWEQGAEVWQKRLAEHRIWSRIFPYSTNWMRLGLPATDEDWARLDAAL | not soluble
SNAMRSAQVYRWQIPMDAGVVLRDRRLKTRDGLYVCLRDGEREGWGEISPLPGFSQETWEEAQTALLTWVNDWLQGSEGLPEMPSVAFGASCALAELTGVLPEAADYRAAPLCTGDPDDLVLRLADMPGEKIAKVKVGLYEAVRDGMVVNLLLEAIPDLHLRLDANRAWTPLKAQQFAKYVNPDYRARIAFLEEPCKTRDDSRAFARETGIAIAWDESLREADFTFEAEEGVRAVVIKPTLTGSLDKVREQVAAAHALGLTAVISSSIESSLGLTQLARIAAWLTPGTLPGLDTLHLMQAQQIRPWPGSALPCLKREELERLL | soluble
MTDVEQPVSVEDQQAQAQSYYDQVLGNAYVQTAINAYTKTKEFHPLLNSTLNSAEEKVSTVGNYAAQKAYDGYNSYYVKPKNTAYEAVSYGTERAKTAVESGKQAAIVGGTFGIGAAVVLTQFSLALSAGGAALVLEQVDSAKKLGSSAISTIKEAELAVEHRIFSALHQAQRIAMVPVEKITENTNSLLDILDGAVQKGLNIEVPPSVNLTIGQRVKNLASLIVQGVSNKAHDHVIDPINERARNYLEQLSQSFVLLDIVREKKTWVIEKSNELSTSVFDFKKTLEEEAQKYKVAPEEMLMKHIQSTSEQLSTQLQSLREKGQNVFGDGTKIDSTIDYLENLKKNFTDAEDVYKVRDEVLNEGRQRIAELSTWTTSLLIISAEWQFEPEDLLIEELYFDAPPPVRTRNLYRNRA | not soluble
MNDAVPAGNFVPPLILHSDHGGSAMSSSAHRGRILHFLGDPAKLGDKAWEYFEDGLLWIEHGHVRALDHATYLLPQLPADLPLEEHPQRLLLPGFVDCHVHYPQLGVIASYGTQLLDWLETHTFPAEQRFADAGYAAAQAELFLDELLRHGTTTALVFGTVHAVSAEAFFQAAQKRRLRMIAGKVLMDRNAPPALCDTAASGYAESRALIERWHGNGRLQYAVTPRFAPTSSPEQLAAAARLLDEYPGVYLHTHLSENLKEVAWVGELFPQAQDYLDVYHRAGLVGERSVFAHGIHLSERECRCLAHKNAALAHCPSSNLFIGSGLFDLGRAQQYGIRVGIGSDVGGGTSLSLLANLADAYKIQQLRGTSLDPFQALYLATLGGARALDLDGLVGNFLPGREADFVALDLAATPMIAQRMEHARGLADTLFVLNTLGDDRAVAETWVMGERRHVKG | not soluble
